Tests used:
[1] = target: nisin precursor NisA (unmodified) (Lactococcus lactis) (UniProt P13068); test: ITC; conditions: cited from earlier work
[2] = target: NisA leader peptide leader peptide (Lactococcus lactis) (UniProt P13068); test: ITC; conditions: cited from earlier work
[3] = target: NisA precursor peptide (unmodified) (Lactococcus lactis) (UniProt P13068); test: ITC; conditions: cited from earlier work
[4] = target: maddinglicin leader peptide construct madL2, Leader 2 (−23 − +5) (Clostridium sp. maddingley); test: ITC; MadC (200–600 μM) in the syringe, 20 injections of 2 μl into the cell with the leader variant (20–60 μM); 25°C; 50 mM HEPES, 500 mM NaCl, pH 7.5; at least triplicate
[5] = target: maddinglicin leader peptide construct madL1, Leader 1 (−23 – −1) (Clostridium sp. maddingley); test: as above
[6] = target: maddinglicin leader peptide construct madL3, Leader 3 (−23 − +10) (Clostridium sp. maddingley); test: as above
[7] = target: prenisin (modified) (Lactococcus lactis) (UniProt P13068); conditions: cited from earlier work
prenisin (modified) (Lactococcus lactis), sequence (P13068 24-57): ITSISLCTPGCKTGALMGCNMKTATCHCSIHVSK

[8] = target: prenisin (dehydrated) (Lactococcus lactis) (UniProt P13068); conditions: cited from earlier work
prenisin (dehydrated) (Lactococcus lactis), sequence (P13068 24-57): as above

[9] = target: prenisin (unmodified) (Lactococcus lactis) (UniProt P13068); conditions: cited from earlier work
prenisin (unmodified) (Lactococcus lactis), sequence (P13068 24-57): as above

[10] = target: MadC ∆34 ∆391 (double mutant carrying both deletions, each with an inserted GAG-linker) (Clostridium sp. maddingley); test: SPR

NisB, sequence (P20103 whole entry): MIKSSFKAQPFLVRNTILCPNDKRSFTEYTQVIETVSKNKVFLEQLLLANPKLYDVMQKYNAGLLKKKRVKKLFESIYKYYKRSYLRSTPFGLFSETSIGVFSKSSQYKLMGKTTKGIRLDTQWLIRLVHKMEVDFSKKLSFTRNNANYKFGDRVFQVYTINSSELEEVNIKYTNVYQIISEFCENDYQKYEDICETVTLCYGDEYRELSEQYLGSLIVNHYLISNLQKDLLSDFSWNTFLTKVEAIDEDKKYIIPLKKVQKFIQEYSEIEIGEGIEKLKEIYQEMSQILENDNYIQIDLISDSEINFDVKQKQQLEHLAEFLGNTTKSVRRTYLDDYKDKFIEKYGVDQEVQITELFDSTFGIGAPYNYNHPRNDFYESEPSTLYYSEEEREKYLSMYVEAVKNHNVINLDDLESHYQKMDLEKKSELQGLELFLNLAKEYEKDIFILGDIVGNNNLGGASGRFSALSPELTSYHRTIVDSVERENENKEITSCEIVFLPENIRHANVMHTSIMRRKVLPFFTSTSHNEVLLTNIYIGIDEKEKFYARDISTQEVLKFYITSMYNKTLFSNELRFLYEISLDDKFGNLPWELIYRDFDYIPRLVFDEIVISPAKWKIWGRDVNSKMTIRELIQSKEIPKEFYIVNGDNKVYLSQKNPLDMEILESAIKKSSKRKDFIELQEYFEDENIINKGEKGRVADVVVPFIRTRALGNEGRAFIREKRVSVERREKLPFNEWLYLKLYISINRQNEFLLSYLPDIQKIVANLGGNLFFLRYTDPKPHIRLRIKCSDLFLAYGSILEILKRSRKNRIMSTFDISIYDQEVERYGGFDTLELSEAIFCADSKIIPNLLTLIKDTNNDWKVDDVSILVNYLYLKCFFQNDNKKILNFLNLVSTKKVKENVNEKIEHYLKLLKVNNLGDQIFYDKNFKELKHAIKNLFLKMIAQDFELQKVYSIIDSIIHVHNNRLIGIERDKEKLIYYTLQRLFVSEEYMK
NisC, sequence (Q03202 whole entry): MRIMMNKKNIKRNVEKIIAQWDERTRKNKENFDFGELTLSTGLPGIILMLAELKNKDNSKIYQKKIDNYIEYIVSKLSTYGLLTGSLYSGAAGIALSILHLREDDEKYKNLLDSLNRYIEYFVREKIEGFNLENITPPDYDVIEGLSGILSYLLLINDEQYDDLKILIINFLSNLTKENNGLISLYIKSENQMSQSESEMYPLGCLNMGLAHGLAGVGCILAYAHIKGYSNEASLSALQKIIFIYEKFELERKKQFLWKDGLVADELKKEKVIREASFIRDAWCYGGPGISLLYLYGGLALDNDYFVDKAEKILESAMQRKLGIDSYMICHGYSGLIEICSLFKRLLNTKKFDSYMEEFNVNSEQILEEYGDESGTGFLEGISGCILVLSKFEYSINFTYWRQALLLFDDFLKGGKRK
NisA leader peptide leader peptide (Lactococcus lactis), sequence (P13068 1-23): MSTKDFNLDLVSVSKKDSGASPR
nisin precursor NisA (unmodified) (Lactococcus lactis), sequence (P13068 24-57): as the sequence (P13068 24-57) above
NisA precursor peptide (unmodified) (Lactococcus lactis), sequence (P13068 24-57): as above

NisC (from UniProt Q03202)
Kd [1]: 2000 nM | Kd [2]: 3800 nM | Kd [3]: 2400 nM

MadC (lanthionine cyclase of Clostridium sp. maddingley), His6-tag cleaved off (enzyme)
dH [4]: -6.02 kcal/mol | stoichiometry N [4]: 0.99 | dH [5]: -8.76 kcal/mol | stoichiometry N [5]: 0.83 | dH [6]: -7.3 kcal/mol | stoichiometry N [6]: 0.99

NisB (from UniProt P20103)
Kd [7]: 10500 nM | Kd [8]: 300 nM | Kd [9]: 1000 nM

maddinglicin leader peptide construct madL3, Leader 3 (−23 − +10)
Kd [10]: 35000 nM

— publication PMC9889658, “The structure of MadC from Clostridium maddingley reveals new insights into class I lanthipeptide cyclases” (Frontiers in Microbiology, 2023)
